Data published in patent US11261232B2, “TNFRSF14 / HVEM proteins and methods of use thereof” (MEMORIAL SLOAN KETTERING CANCER CENTER, priority 2015, dated 2022).

Columns and labels:
DOHH2 cells = experiment: BTK, SYK and ERK activation in anti-IgG-stimulated DOHH2 cells; assay type: cell-based, human
Procedure: (§1) FIG. 7A-H. The solHVEM (either Leu39-Va1202 or Pro37-Va1202) protein restores tumor suppressive effects of HVEM.
FIG. 14A-E. Effect of solHVEM (either Leu39-Va1202 or Pro37-Va1202) on murine and human FL B cells. FIG. 14A and FIG. 14B, Quantification of pSYK levels in DOHH2 lymphoma cells that were stimulated with anti-IgG in the presence or absence of Pro37-Va1202 solHVEM (5 μg/ml) (* indicated p<0.01); representative FACS measurement in (FIG. 14B) FIG. 14C, FACS analysis of BTLA expression in a panel of lymphoma lines including murine myc/bc12 lymphomas and human lines (DOHH2, Su-DHL6, Granta, Ly10); FIG. 14D, representative pictures of tumors from mice; FIG. 14E, tumor weight of mouse tumors (n=3, p<0.01).
FIG. 15A-B. sTNFRSF14 opposes B cell receptor signaling in lymphoma B cells by decreasing P-BTK. A B-cell lymphoma cell line (DOHH2) was pre-treated for one hour with the soluble ectodomain of TNFRSF14 (sTNFRSF14) Pro 37-Val 202 (5 ug/ml) or the BTK inhibitor Ibrutinib (10nmM) and then stimulated for 5 mins at 37° C. with anti-IgG molecule. The cells were subsequently fixed and permeabilized and probed for pBTK expression using phospo-flow antibodies and analyzed on BD Fortessa. FIG. 15A, Representative FACS plots. FIG. 15B, Quantification of mean fluorescence intensity of phospho-BTK after treatment with vehicle or drug.
FIG. 16A-B. sTNFRSF14 opposes B-cell receptor signaling in lymphoma B cells by decreasing P-SYK. A B-cell lymphoma cell line (DOHH2) was pre-treated for one hour with the soluble ectodomain of TNFRSF14 (sTNFRSF14) Pro37-Val 202 (5 ug/ml) or the BTK inhibitor Ibrutinib (10nmM) and then stimulated for 5 mins at 37° C. with anti-IgG molecule. The cells were subsequently fixed and permeabilized and probed for pSYK expression using phospo-flow antibodies and analyzed on a BD Fortessa. FIG. 16A, Representative FACS plots. FIG. 16B, Quantification of mean fluorescence intentisty of phospho-SYK after treatment with vehicle or drug.
(§2) Building on these findings, experiments were performed to test whether solHVEM would have any single agent activity against lymphomas. First, the expression of the BTLA receptor was characterized across a panel of human and mouse lymphoma (mostly DLBCL) cell lines. […] Next, experiments were performed to test if solHVEM had any effect on established BTLA^hi lymphomas in vivo. Briefly, aggressive MYC/BCL2 double positive murine lymphoma cells that express BTLA (BTLA^hi) were transplanted into the flanks of J:Nu nude mice and mice were treated with 20 μg of solHVEM or vehicle (PBS) every three days for a total four times once the engrafted tumors reached a volume of ˜50 mm3. […] Similar results were obtained both in vitro and in vivo with a different soluble HVEM molecule consisting of the extracellular region from amino acids Pro37 to Va1202 (SEQ ID NO. 6).
For phospho-BTK, phospho-Syk staining, cells were pretreated for 60 min with either 5 μg/mL of sHVEM (R&D Systems) or 10 ng/mL Ibrutinib (ChemieTek PCI-32765) at 37° C. Cells were fixed by adding equal volume of formaldehyde directly to the cells. Cells were incubated for 10 minutes at room temperature, washed 2× in PBS and the residual cells were permeabilized in 1 mL of ice cold methanol (100%) for 30 min on ice. Cells were then washed twice and stained with the phospho-BTK (Bd Biosciences clone N35-88) and phospho-Syk (Bd Biosciences clone 17 A/P-Zap70) and analyzed on BD LSRFortessa. […]

[1] = test system: human and mouse lymphoma cell lines; experiment: Cell proliferation in panel of BTLAhi and BTLAlo lymphoma cell lines; assay type: cell-based
Procedure: as §1
FIG. 17. sTNFRSF14 inhibits the growth of lymphoma cell lines in vitro. Three lymphoma cell lines (Myc-Bc12, LY-10, Granta) were plated at 1×10^5 cells/ml and were treated with sTNFRSF14 (5 ug/ml) or vehicle each day for 72 hours. After 72 hours cells were counted using a hemocytometer. Each bar represents the average of three independent experiments.
as §2
Lymphoma cell lines DoHH2, Ly-10, Granta, Su-DHL-6 were maintained in RPMI 1640 with 10% fetal bovine serum, 1% L-Glutamine and 1% penicillin/streptomycin. Mouse lymphoma cell line myc-bcl2 was maintained in IMDM-DMEM (50:50) with 10% fetal bovine serum, 1% L-Glutamine, and 1% penicillin/streptomycin. Cell lines were seeded at 5×10^5/mL and were treated with 5 m/m1 of sHVEM. After 24 hours cell number was counted using hemocytometer for a total of 72 hours after treatment.

[2] = DOHH2 (BTLAhi, HVEM deleted), 10 μg/ml

For “solHVEM: Leu39-Val202 soluble HVEM ectodomain polypeptide of SEQ ID NO. 8”, the ERK activation (DOHH2 cells; [2]) was “readily blocked”, the SYK activation (DOHH2 cells; [2]) was “readily blocked” and the “growth of BTLAhi lymphoma cells” value ([1]; BTLAhi lines (DOHH2, SU-DHL6, murine MYC/BCL2), 5 μg/ml) was “significant growth inhibition”. The “growth of BTLAlo lymphoma cells” value ([1]; BTLAlo lines (Granta, Su-DHL10), 5 μg/ml) was “not affected”.

B1: sTNFRSF14: Pro37-Val202 soluble HVEM ectodomain polypeptide of SEQ ID NO. 6 (protein, listed as Homo sapiens)
chain: PALPSCKEDEYPVGSECCPKCSPGYRVKEACGELTGTVCEPCPPGTYIAHLNGLSKCLQCQMCDPAMGLRASRNCSRTENAVCGCSPGHFCIVQDGDHCAACRAYATSSPGQRVQKGGTESQDTLCQNCPPGTFSPNGTLEECQHQTKCSWLVTKAGAGTSSSHWV
B1 was tested, and the BTK activation (DOHH2 cells; [2]) was “readily blocked”, the “activation (phosphorylation) of BTK” value (DOHH2 cells; DOHH2, one hour pre-incubation, 5 ug/ml, anti-IgG) was “effectively blocked” and the “levels of phosphorylated SYK” value (DOHH2 cells; DOHH2, one hour pre-treatment, 5 ug/ml, anti-IgG) was “inhibited”. The “cell growth in cell lines that did not express BTLA” value ([1]; 5 ug, three days) was “did not inhibit cell growth” and the “cell growth in cell lines with highest BTLA levels” value ([1]; Myc-Bc12 cell line, 5 ug, three days) was “largest effect on growth”.
